Test results: ChEMBL document CHEMBL2073952, “Na(+)-coupled transport of L-carnitine via high-affinity carnitine transporter OCTN2 and its subcellular localization in kidney” (Biochim Biophys Acta, 2001)

Substrate: C[N+](C)(C)CC(O)CC(=O)[O-]
Assay: TP_TRANSPORTER: uptake in membrane vesicle from OCTN2-expressing HEK 293 cell
Format: functional, cell membranes, HEK293

B1: Organic cation/carnitine transporter 2 (Homo sapiens) (protein)
chain: MRDYDEVTAFLGEWGPFQRLIFFLLSASIIPNGFTGLSSVFLIATPEHRCRVPDAANLSSAWRNHTVPLRLRDGREVPHSCRRYRLATIANFSALGLEPGRDVDLGQLEQESCLDGWEFSQDVYLSTIVTEWNLVCEDDWKAPLTISLFFVGVLLGSFISGQLSDRFGRKNVLFVTMGMQTGFSFLQIFSKNFEMFVVLFVLVGMGQISNYVAAFVLGTEILGKSVRIIFSTLGVCIFYAFGYMVLPLFAYFIRDWRMLLVALTMPGVLCVALWWFIPESPRWLISQGRFEEAEVIIRKAAKANGIVVPSTIFDPSELQDLSSKKQQSHNILDLLRTWNIRMVTIMSIMLWMTISVGYFGLSLDTPNLHGDIFVNCFLSAMVEVPAYVLAWLLLQYLPRRYSMATALFLGGSVLLFMQLVPPDLYYLATVLVMVGKFGVTAAFSMVYVYTAELYPTVVRNMGVGVSSTASRLGSILSPYFVYLGAYDRFLPYILMGSLTILTAILTLFLPESFGTPLPDTIDQMLRVKGMKHRKTPSHTRMLKDGQERPTILKSTAF
Which Km does the source give for B1 here?
The Km was 2.66 µM.
